Data on one substance can be found in US20080107662A1.

Experiment [1] concerns the target Maltose Binding Protein (MBP) (E. coli) [MBP: P0AEX9]. The experiment can be described thus: ELISA control without serum, antigen MBP.
The target of experiment [2] is MBP-ABL (E. coli) [MBP: P0AEX9]. The experiment can be described thus: ELISA control without serum, antigen MBP-ABL.
In a further experiment the target is 38C13 IgM Id. The experiment is described as follows: ELISA control without serum, antigen 38C13 IgM Id.

Regarding Secondary Ab only (antibody), the ELISA reading in experiment [1] was 0.055; in experiment [2], 0.052; with 38C13 IgM Id, 0.09.
